In patent publication US10676749:

Legend:
Test in all cases: cell_activity
[1] = test system: TALE-VP64 VEGF9-6 (synthetic); settings: VEGF-A ELISA, 293 cells
[2] = test system: TALE-VP64 VEGF7-6 (synthetic); settings: VEGF-A ELISA, 293 cells
[3] = test system: TALE-VP64 VEGF4-4 (synthetic); settings: VEGF-A ELISA, 293 cells
[4] = test system: TALE-VP64 VEGF2-6 (synthetic); settings: VEGF-A ELISA, 293 cells
[5] = test system: TALE-VP64 VEGF2-3 (synthetic); settings: VEGF-A ELISA, 293 cells
[6] = test system: TALE-VP64 VEGF7-3 (synthetic); settings: VEGF-A ELISA, 293 cells
[7] = test system: TALE-VP64 VEGF4-6 (synthetic); settings: VEGF-A ELISA, 293 cells
[8] = test system: TALE-VP64 Ntf3-1 (synthetic); settings: NTF3 qRT-PCR, 293 cells; weakest about 1000-fold
[9] = test system: TALE-VP64 VEGF3-1 (synthetic); settings: VEGF-A ELISA, 293 cells
[10] = test system: TALE-VP64 VEGF5-4 (synthetic); settings: VEGF-A ELISA, 293 cells
[11] = test system: TALE-VP64 VEGF3-3 (synthetic); settings: VEGF-A ELISA, 293 cells
[12] = test system: TALE-VP64 VEGF3-4 (synthetic); settings: VEGF-A ELISA, 293 cells
[13] = test system: TALE-VP64 VEGF5-6 (synthetic); settings: VEGF-A ELISA, 293 cells
[14] = test system: TALE-VP64 VEGF6-2 (synthetic); settings: VEGF-A ELISA, 293 cells
[15] = test system: TALE-VP64 VEGF2-5 (synthetic); settings: VEGF-A ELISA, 293 cells
[16] = test system: TALE-VP64 VEGF8-6 (synthetic); settings: VEGF-A ELISA, 293 cells
[17] = test system: TALE-VP64 VEGF8-5 (synthetic); settings: VEGF-A ELISA, 293 cells
[18] = test system: TALE-VP64 VEGF5-2 (synthetic); settings: VEGF-A ELISA, 293 cells
[19] = test system: TALE-VP64 Ntf3-2 (synthetic); settings: NTF3 qRT-PCR, 293 cells
[20] = test system: TALE-VP64 VEGF3-2 (synthetic); settings: VEGF-A ELISA, 293 cells
[21] = test system: TALE-VP64 VEGF5-3 (synthetic); settings: VEGF-A ELISA, 293 cells
[22] = test system: TALE-VP64 VEGF6-5 (synthetic); settings: VEGF-A ELISA, 293 cells
[23] = test system: TALE-VP64 VEGF9-1 (synthetic); settings: VEGF-A ELISA, 293 cells
[24] = test system: TALE-VP64 VEGF8-2 (synthetic); settings: VEGF-A ELISA, 293 cells
[25] = test system: TALE-VP64 Ntf3-3 (synthetic); settings: NTF3 qRT-PCR, 293 cells
[26] = test system: TALE-VP64 VEGF7-2 (synthetic); settings: VEGF-A ELISA, 293 cells
[27] = test system: TALE-VP64 VEGF4-5 (synthetic); settings: VEGF-A ELISA, 293 cells
[28] = test system: TALE-VP64 VEGF7-4 (synthetic); settings: VEGF-A ELISA, 293 cells
[29] = test system: TALE-VP64 VEGF4-2 (synthetic); settings: VEGF-A ELISA, 293 cells
[30] = test system: TALE-VP64 VEGF1-6 (synthetic); settings: VEGF-A ELISA, 293 cells
[31] = test system: TALE-VP64 VEGF2-1 (synthetic); settings: VEGF-A ELISA, 293 cells
[32] = test system: TALE-VP64 VEGF7-5 (synthetic); settings: VEGF-A ELISA, 293 cells
[33] = test system: TALE-VP64 VEGF6-1 (synthetic); settings: VEGF-A ELISA, 293 cells
[34] = test system: TALE-VP64 VEGF2-2 (synthetic); settings: VEGF-A ELISA, 293 cells
[35] = test system: TALE-VP64 Ntf3-5 (synthetic); settings: NTF3 qRT-PCR, 293 cells
[36] = test system: TALE-VP64 VEGF6-6 (synthetic); settings: VEGF-A ELISA, 293 cells
[37] = test system: TALE-VP64 VEGF2-4 (synthetic); settings: VEGF-A ELISA, 293 cells
[38] = test system: TALE-VP64 VEGF6-4 (synthetic); settings: VEGF-A ELISA, 293 cells
[39] = test system: TALE-VP64 VEGF5-5 (synthetic); settings: VEGF-A ELISA, 293 cells
[40] = test system: TALE-VP64 VEGF9-2 (synthetic); settings: VEGF-A ELISA, 293 cells
[41] = test system: TALE-VP64 VEGF6-3 (synthetic); settings: VEGF-A ELISA, 293 cells
[42] = test system: TALE-VP64 VEGF3-6 (synthetic); settings: VEGF-A ELISA, 293 cells
[43] = test system: TALE-VP64 VEGF4-1 (synthetic); settings: VEGF-A ELISA, 293 cells
[44] = test system: TALE-VP64 VEGF1-2 (synthetic); settings: VEGF-A ELISA, 293 cells
[45] = test system: TALE-VP64 VEGF8-4 (synthetic); settings: VEGF-A ELISA, 293 cells
[46] = test system: TALE-VP64 VEGF1-3 (synthetic); settings: VEGF-A ELISA, 293 cells
[47] = test system: TALE-VP64 VEGF1-4 (synthetic); settings: VEGF-A ELISA, 293 cells; site printed with S at position 6
[48] = test system: TALE-VP64 VEGF8-1 (synthetic); settings: VEGF-A ELISA, 293 cells
[49] = test system: TALE-VP64 VEGF9-5 (synthetic); settings: VEGF-A ELISA, 293 cells
[50] = test system: TALE-VP64 VEGF4-3 (synthetic); settings: VEGF-A ELISA, 293 cells
[51] = test system: TALE-VP64 VEGF9-4 (synthetic); settings: VEGF-A ELISA, 293 cells
[52] = test system: TALE-VP64 VEGF3-5 (synthetic); settings: VEGF-A ELISA, 293 cells
[53] = test system: TALE-VP64 VEGF8-3 (synthetic); settings: VEGF-A ELISA, 293 cells
[54] = test system: TALE-VP64 VEGF9-3 (synthetic); settings: VEGF-A ELISA, 293 cells
[55] = test system: TALE-VP64 VEGF5-1 (synthetic); settings: VEGF-A ELISA, 293 cells
[56] = test system: TALE-VP64 VEGF1-5 (synthetic); settings: VEGF-A ELISA, 293 cells
[57] = test system: TALE-VP64 Ntf3-4 (synthetic); settings: NTF3 qRT-PCR, 293 cells
[58] = test system: TALE-VP64 VEGF1-1 (synthetic); settings: VEGF-A ELISA, 293 cells; range 5.3-114 over 53 active TALEs

Sequence: TCCACCCCGCCTCCGGGCGCGGGCTC (double strand) [VEGF9-6 site]
- activity (fold activation) [1]: > 5.3

Sequence: TCCGTCAGCGCGACTGGTCAGCTGCG (double strand) [VEGF7-6 site]
- activity (fold activation) [2]: > 5.3

Sequence: TCCCCGGCCGGCGGCGGACAGT (double strand) [VEGF4-4 site]
- activity (fold activation) [3]: > 5.3

Sequence: TCCCGCAGCTGACCAGTCGCGCTGAC (double strand) [VEGF2-6 site]
- activity (fold activation) [4]: > 5.3

Sequence: TCCCGCAGCTGACCAGTCGC (double strand) [VEGF2-3 site]
- activity (fold activation) [5]: > 5.3

Sequence: TCCGTCAGCGCGACTGGTCA (double strand) [VEGF7-3 site]
- activity (fold activation) [6]: > 5.3

Sequence: TCCCCGGCCGGCGGCGGACAGTGGAC (double strand) [VEGF4-6 site]
- activity (fold activation) [7]: > 5.3

Sequence: TTCTGTTCACGGGACTCA (double strand) [Ntf3-1 site]
- activity (fold activation (approx)) [8]: > 1000

Sequence: TACCACCTCCTCCCCG (double strand) [VEGF3-1 site]
- activity (fold activation) [9]: > 5.3

Sequence: TGGACGCGGCGGCGAGCCGCGG (double strand) [VEGF5-4 site]
- activity (fold activation) [10]: > 5.3

Sequence: TACCACCTCCTCCCCGGCCG (double strand) [VEGF3-3 site]
- activity (fold activation) [11]: > 5.3

Sequence: TACCACCTCCTCCCCGGCCGGC (double strand) [VEGF3-4 site]
- activity (fold activation) [12]: > 5.3

Sequence: TGGACGCGGCGGCGAGCCGCGGGCAG (double strand) [VEGF5-6 site]
- activity (fold activation) [13]: > 5.3

Sequence: TCCCAAGGGGGAGGGCTC (double strand) [VEGF6-2 site]
- activity (fold activation) [14]: > 5.3

Sequence: TCCCGCAGCTGACCAGTCGCGCTG (double strand) [VEGF2-5 site]
- activity (fold activation) [15]: > 5.3

Sequence: TCCACTGTCCGCCGCCGGCCGGGGAG (double strand) [VEGF8-6 site]
- activity (fold activation) [16]: > 5.3

Sequence: TCCACTGTCCGCCGCCGGCCGGGG (double strand) [VEGF8-5 site]
- activity (fold activation) [17]: > 5.3

Sequence: TGGACGCGGCGGCGAGCC (double strand) [VEGF5-2 site]
- activity (fold activation) [18]: > 5.3

Sequence: TCCGAACAGCTCCGCGCA (double strand) [Ntf3-2 site]
- activity (fold activation (approx)) [19]: > 1000

Sequence: TACCACCTCCTCCCCGGC (double strand) [VEGF3-2 site]
- activity (fold activation) [20]: > 5.3

Sequence: TGGACGCGGCGGCGAGCCGC (double strand) [VEGF5-3 site]
- activity (fold activation) [21]: > 5.3

Sequence: TCCCAAGGGGGAGGGCTCACGCCG (double strand) [VEGF6-5 site]
- activity (fold activation) [22]: > 5.3

Sequence: TCCACCCCGCCTCCGG (double strand) [VEGF9-1 site]
- activity (fold activation) [23]: > 5.3

Sequence: TCCACTGTCCGCCGCCGG (double strand) [VEGF8-2 site]
- activity (fold activation) [24]: > 5.3

Sequence: TTCCCCTGCTGGGTAGTG (double strand) [Ntf3-3 site]
- activity (fold activation (approx)) [25]: > 1000

Sequence: TCCGTCAGCGCGACTGGT (double strand) [VEGF7-2 site]
- activity (fold activation) [26]: > 5.3

Sequence: TCCCCGGCCGGCGGCGGACAGTGG (double strand) [VEGF4-5 site]
- activity (fold activation) [27]: > 5.3

Sequence: TCCGTCAGCGCGACTGGTCAGC (double strand) [VEGF7-4 site]
- activity (fold activation) [28]: > 5.3

Sequence: TCCCCGGCCGGCGGCGGA (double strand) [VEGF4-2 site]
- activity (fold activation) [29]: > 5.3

Sequence: TTGGGGGTGACCGCCGGAGCGCGGCG (double strand) [VEGF1-6 site]
- activity (fold activation) [30]: > 5.3

Sequence: TCCCGCAGCTGACCAG (double strand) [VEGF2-1 site]
- activity (fold activation) [31]: > 5.3

Sequence: TCCGTCAGCGCGACTGGTCAGCTG (double strand) [VEGF7-5 site]
- activity (fold activation) [32]: > 5.3

Sequence: TCCCAAGGGGGAGGGC (double strand) [VEGF6-1 site]
- activity (fold activation) [33]: > 5.3

Sequence: TCCCGCAGCTGACCAGTC (double strand) [VEGF2-2 site]
- activity (fold activation) [34]: > 5.3

Sequence: TCCCTCAATCTGGGAAAG (double strand) [Ntf3-5 site]
- activity (fold activation (approx)) [35]: > 1000

Sequence: TCCCAAGGGGGAGGGCTCACGCCGCG (double strand) [VEGF6-6 site]
- activity (fold activation) [36]: > 5.3

Sequence: TCCCGCAGCTGACCAGTCGCGC (double strand) [VEGF2-4 site]
- activity (fold activation) [37]: > 5.3

Sequence: TCCCAAGGGGGAGGGCTCACGC (double strand) [VEGF6-4 site]
- activity (fold activation) [38]: > 5.3

Sequence: TGGACGCGGCGGCGAGCCGCGGGC (double strand) [VEGF5-5 site]
- activity (fold activation) [39]: > 5.3

Sequence: TCCACCCCGCCTCCGGGC (double strand) [VEGF9-2 site]
- activity (fold activation) [40]: > 5.3

Sequence: TCCCAAGGGGGAGGGCTCAC (double strand) [VEGF6-3 site]
- activity (fold activation) [41]: > 5.3

Sequence: TACCACCTCCTCCCCGGCCGGCGGCG (double strand) [VEGF3-6 site]
- activity (fold activation) [42]: > 5.3

Sequence: TCCCCGGCCGGCGGCG (double strand) [VEGF4-1 site]
- activity (fold activation) [43]: > 5.3

Sequence: TTGGGGGTGACCGCCGGA (double strand) [VEGF1-2 site]
- activity (fold activation) [44]: > 5.3

Sequence: TCCACTGTCCGCCGCCGGCCGG (double strand) [VEGF8-4 site]
- activity (fold activation) [45]: > 5.3

Sequence: TTGGGGGTGACCGCCGGAGC (double strand) [VEGF1-3 site]
- activity (fold activation) [46]: > 5.3

Sequence: TTGGGGGTGACCGCCGGAGCGC (double strand) [VEGF1-4 site]
- activity (fold activation) [47]: > 5.3

Sequence: TCCACTGTCCGCCGCC (double strand) [VEGF8-1 site]
- activity (fold activation) [48]: > 5.3

Sequence: TCCACCCCGCCTCCGGGCGCGGGC (double strand) [VEGF9-5 site]
- activity (fold activation) [49]: > 5.3

Sequence: TCCCCGGCCGGCGGCGGACA (double strand) [VEGF4-3 site]
- activity (fold activation) [50]: > 5.3

Sequence: TCCACCCCGCCTCCGGGCGCGG (double strand) [VEGF9-4 site]
- activity (fold activation) [51]: > 5.3

Sequence: TACCACCTCCTCCCCGGCCGGCGG (double strand) [VEGF3-5 site]
- activity (fold activation) [52]: > 5.3

Sequence: TCCACTGTCCGCCGCCGGCC (double strand) [VEGF8-3 site]
- activity (fold activation) [53]: > 5.3

Sequence: TCCACCCCGCCTCCGGGCGC (double strand) [VEGF9-3 site]
- activity (fold activation) [54]: > 5.3

Sequence: TGGACGCGGCGGCGAG (double strand) [VEGF5-1 site]
- activity (fold activation) [55]: > 5.3

Sequence: TTGGGGGTGACCGCCGGAGCGCGG (double strand) [VEGF1-5 site]
- activity (fold activation) [56]: > 5.3

Sequence: TACGCCTCAGACCTGATC (double strand) [Ntf3-4 site]
- activity (fold activation (approx)) [57]: > 1000

Sequence: TTGGGGGTGACCGCCG (double strand) [VEGF1-1 site]
- activity (fold activation) [58]: > 5.3
